The target of the experiment is human PD-L1 on PD-L1 aAPC/CHO-K1 cells (human) (UniProt Q9NZQ7).
Chain of human PD-L1 on PD-L1 aAPC/CHO-K1 cells (human) (Q9NZQ7 19-290): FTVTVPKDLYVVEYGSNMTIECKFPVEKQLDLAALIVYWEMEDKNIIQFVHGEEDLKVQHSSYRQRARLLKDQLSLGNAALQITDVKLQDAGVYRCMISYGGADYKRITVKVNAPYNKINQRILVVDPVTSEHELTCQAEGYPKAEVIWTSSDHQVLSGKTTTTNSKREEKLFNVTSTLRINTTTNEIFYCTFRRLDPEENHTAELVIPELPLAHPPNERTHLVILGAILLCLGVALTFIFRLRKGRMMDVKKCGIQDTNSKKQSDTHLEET

As for Atezolizumab (antibody), the EC50 (read off the curve), fold induction, PD1/PD-L1 blockade cell bioassay turned out to be 0.5 nM.

Source of the values: patent publication US20250002585A1.
